T1: mouse CACNG1 expressed on cells (mouse, UniProt O70578 1-223)
T1 sequence (looked up): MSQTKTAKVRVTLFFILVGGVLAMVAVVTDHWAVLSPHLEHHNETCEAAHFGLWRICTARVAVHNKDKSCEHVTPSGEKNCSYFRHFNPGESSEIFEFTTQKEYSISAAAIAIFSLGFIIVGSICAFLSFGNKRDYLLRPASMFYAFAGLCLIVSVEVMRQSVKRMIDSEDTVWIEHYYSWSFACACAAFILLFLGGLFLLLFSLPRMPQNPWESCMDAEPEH


Legend:
[1] = target: T2, human CACNG1 expressed on cells (human, UniProt Q06432 1-222); assay: cell-based or functional assay
[2] = target: T1, mouse CACNG1 expressed on cells; assay: cell-based or functional assay
[3] = target: T2, human CACNG1 expressed on cells; assay: imaging cell binding, HEK293/hCACNG1
Description: (§1) HuSKM were seeded in collagen-coated 96-well plates (Greiner Bio-One #655956) at 8,500 cells/well and grown for 24 hours. The growth media was changed to MyoTonic Differentiation Media (Cook Myosite Cat #MD-5555) and replaced every 2 days. Myotubes were assayed after 6 days of differentiation. C2C12 mouse myoblasts were maintained in DMEM with 10% FBS and 1% penicillin-streptomycin supplement and grown in a 37° C. incubator with 5% CO₂. C2C12 cells were seeded in collagen-coated 96-well plates (Greiner Bio-One #655956) at 10,000 cells/well for the cell binding assay and 5,000 cells/well for the cell killing assay. After 24 hours, growth media was replaced with differentiation media (DMEM with 2% horse serum) and placed in a 37° C. incubator with 7.5% CO₂. C2C12 myotubes were assayed after 3 days of differentiation. HEK293/hCACNG1, HEK293/mCACNG1, and HEK293 cells were seeded at 10,000 cells (cell binding assay) or 2,000 (cell killing assay) per well in 96-well black collagen coated plates (Greiner Bio-One, cat #655956) in complete growth media and grown overnight at 37° C. in 5% CO₂.
(§2) Relative binding of anti-CACNG1 antibodies was assessed across the entire panel of cell lines via imaging analysis. […] After one wash with antibody dilution buffer, samples were fixed in CytoFix (BD Biosciences, Cat #554655) diluted 1:1 in PBS and supplemented with a 1:2000 dilution of Hoechst 33342 (Thermo, Cat #H1399) for 20 minutes on ice. Images were acquired with a 10× objective on the Opera Phenix (Perkin Elmer) and relative fluorescence units (RFU) was determined using Harmony software (Perkin Elmer).

[4] = target: T1, mouse CACNG1 expressed on cells; assay: imaging cell binding, HEK293/mCACNG1
Description: as §1, §2

[5] = target: T2, human CACNG1 expressed on cells; assay: imaging cell binding, HuSKM myotubes
Description: as §1, §2

[6] = target: T2, human CACNG1 expressed on cells; assay: imaging cell binding, HEK293/hCACNG1; remark: listed apart in the source
Description: as §1, §2

[7] = target: T2, human CACNG1 expressed on cells; assay: imaging cell binding, HuSKM myotubes; remark: listed apart in the source
Description: as §1, §2

[8] = target: T3, nanodisc embedded human CACNG1 expressed with a C-terminal PADRE-Flag-His tag (human, UniProt Q06432 1-222); assay: SPR, anti-His-captured nanodisc, 25 C
T3 construct: Captured on an anti-His Biacore surface; also called human CACNG1 nanodisc; CACNG1 nanodisc; not shown: C-terminal tag
Description: Equilibrium dissociation constants (KD values) for nanodisc embedded human CACNG1 expressed with a C-terminal […] tag (human CACNG1 nanodisc; concentration 0.82 mg/ml) binding to purified anti-CACNG1 antibodies were determined using a real-time surface plasmon resonance biosensor technology with a Biacore T200 instrument. The CM5 Biacore sensor surface was derivatized by amine coupling with a monoclonal mouse anti-His antibody (Cytiva; Marlborough, MA). All Biacore binding studies were performed in a buffer composed of 0.01M HEPES, 0.15M NaCl, 1 mM CaCl₂, 0.5 mM MgCl₂, pH 7.4 (HBS-N++ running buffer). Different concentrations of anti-CACNG1 antibodies (ranging from 300 nM to 12 nM in 5-fold serial dilutions) prepared in HBS-N++ running buffer were injected over the captured human CACNG1 nanodisc at a flow rate of 30 μL/minute. Antibody association was monitored for 2 minutes while dissociation was monitored in HBS-N++ running buffer for 5 minutes. At the end of each cycle, the human CACNG1 nanodisc capture surface was regenerated using three 10 second injections of 10 mM Gly pH1.5. All binding kinetics experiments were performed at 25° C.
The specific SPR-Biacore sensorgrams were obtained by a double referencing procedure. The double referencing was performed by first subtracting the signal of each injection over a reference surface (anti-His) from the signal over the experimental surface (anti-His captured human CACNG1 nanodisc) thereby removing contributions from refractive index changes. In addition, running buffer injections were performed to allow subtraction of the signal changes resulting from the dissociation of captured antibodies from the coupled anti-His surface. Kinetic association (kₐ) and dissociation ([…]) rate constants were determined by fitting the real-time sensorgrams to a 1:1 binding model using Scrubber v2.0c curve fitting software. Binding dissociation equilibrium constants (KD) and dissociative half-lives (t %) were calculated from the kinetic rate constants as: […]

[9] = target: T1, mouse CACNG1 expressed on cells; assay: imaging cell binding, C2C12 mouse myotubes
Description: as §1, §2

[10] = target: T1, mouse CACNG1 expressed on cells; assay: imaging cell binding, C2C12 mouse myotubes; remark: listed apart in the source
Description: as §1, §2

[11] = target: T2, human CACNG1 expressed on cells; assay: cell-based or functional assay; remark: listed apart in the source
[12] = target: T2, human CACNG1 expressed on cells; assay: cell-based or functional assay; remark: listed apart in the source
[13] = target: T2, human CACNG1 expressed on cells; assay: cell-based or functional assay; remark: listed apart in the source

T3 sequence (Q06432 whole entry): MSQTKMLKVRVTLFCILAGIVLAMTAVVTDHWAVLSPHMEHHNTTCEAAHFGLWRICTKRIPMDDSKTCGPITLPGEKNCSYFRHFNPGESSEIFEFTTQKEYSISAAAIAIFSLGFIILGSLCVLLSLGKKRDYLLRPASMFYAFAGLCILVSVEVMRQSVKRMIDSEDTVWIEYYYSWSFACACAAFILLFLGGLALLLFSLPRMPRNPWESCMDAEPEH
T2 sequence (Q06432 whole entry): as above

| Binder | % KILL, indirect cell killing, HEK293/hCACNG1 [1] [%] | % KILL, indirect cell killing, HuSKM [1] [%] | EC50/IC50, indirect cell killing, HEK293/hCACNG1 [1] [nM] | EC50/IC50, indirect cell killing, HuSKM [1] [nM] | % KILL, indirect cell killing, C2C12 [2] [%] | % KILL, indirect cell killing, HEK293/mCACNG1 [2] [%] | EC50/IC50, indirect cell killing, C2C12 [2] [nM] | EC50/IC50, indirect cell killing, HEK293/mCACNG1 [2] [nM] | EC50 [3] [nM] | S/N [3] [fold] | EC50 [4] [nM] | S/N [4] [fold] | EC50 [5] [nM] | S/N [5] [fold] | Kd [8] [nM] | koff [8] [s⁻¹] | kon [8] [M⁻¹ s⁻¹] | mAb bound at 300 nM [8] [RU] | t1/2 [8] [min] | S/N [9] [fold] | other results |
| --- | --- | --- | --- | --- | --- | --- | --- | --- | --- | --- | --- | --- | --- | --- | --- | --- | --- | --- | --- | --- | --- |
| REGN10716 (antibody, human IgG4 S228P, kappa, hIgG4) heavy: not shown light: EIVLTQSPGTLSLSPGERATLSCRASQTINHNNLAWYQQRPGQAPRLLIYGASNRATAIPDRFSGSGSGTDFTLTISRLEPEDFEVYSCQQYGSLPLTFGGGTKVEIKRTVAAPSVFIFPPSDEQLKSGTASVVCLLNNFYPREAKVQWKVDNALQSGNSQESVTEQDSKDSTYSLSSTLTLSKADYEKHKVYACEVTHQGLSSPVTKSFNRGEC | 95.1 | 61.7 | 0.00295 | 0.34 | 99.9 | 91.2 | 0.0167 | 0.00893 | > 100 | 35.9 | > 100 | 21.4 | 13 | 466 | 0.114 | 8.36e-05 | 730000 | 31 | 138 | 6.3 | EC50 [6]: > 100 nM; S/N [6]: 2.2 fold; EC50 [7]: 12 nM; S/N [7]: 81.1 fold; EC50 [9]: > 100 nM; EC50 [10]: > 100 nM; S/N [10]: 5.2 fold |
| REGN10717 (antibody, human IgG4 S228P, kappa, hIgG4) heavy: not shown light: DIQMTQSPSTLSASVGDRVTLTCRASQSISNKLAWYQQKPGKAPNLLIYKASNLESGVPSRFSGSGSGTEFTLTISSLQPDDFATYYCQQYNSYSWTFGQGTKVEIKRTVAAPSVFIFPPSDEQLKSGTASVVCLLNNFYPREAKVQWKVDNALQSGNSQESVTEQDSKDSTYSLSSTLTLSKADYEKHKVYACEVTHQGLSSPVTKSFNRGEC | 97 | 99.6 | 0.000806 | 0.0364 | 99.8 | 96 | 0.00356 | 0.00118 | > 100 | 77.4 | > 100 | 23.6 | 69 | 292 | 104 | 0.0304 | 294000 | 7 | 0.4 | 4.9 | EC50 [9]: > 100 nM |
| H4H31265P2 (antibody, human IgG4 S228P, kappa, V domains shown, also called H4H31265P2/REGN5972 (lot H4H31265P2-L1)) VH: QVQLVESGGGVVQPGRSLRLSCTASGFTFRSYGMHWVRQAPGKGLEWVSVIWIDGNNIYYADSVKGRFTISRDNSKNTLYLQMDSLRAEDTAVYYCARRLAITSAAPFDYWGQGTLVTVSS VL: not shown | 94.6 | 95.6 | 0.00245 | 0.56 | 3.4 | 22.9 | > 10 | > 1 | 11 | 247 |  | 1.2 | 3.3 | 250 | 81 | 0.0084 | 104000 | 14 | 1.4 | 0.8 | binding result [9]: no binding (tested: 100 nM highest tested) |
| H2aM31929N (antibody, V domains shown, also called H2aM31929N/REGN10728 (lot H2aM31929N-L1)) VH: QVQLVESGGGVVQPGRSLRLSCTASGITFRNYGMHWVRQAPGKGLEWVAVMWYDGSNKYYADSVKGRFTISGDNSKVYLQMNSLRAEDTAVYYCARRGTIRTAAPFDYWGQGTLVTVSS VL: not shown | 95 | 96.3 | 0.00277 | 0.031 | 7.5 | 18.3 | > 10 | > 1 | 6.2 | 84 |  | 1 | 1.9 | 252 | 0.745 | 0.000559 | 750000 | 25 | 20.7 | 1.2 | binding result [9]: no binding (tested: 100 nM highest tested) |
| REGN14571-M3004 (antibody, human IgG1, kappa, N297Q, N297Q; DHT linker-payload M3004 conjugated, DAR about 4) heavy chain: not shown light chain: EIVLTQSPGTLSLSPGERATLSCRASQTINHNNLAWYQQRPGQAPRLLIYGASNRATAIPDRFSGSGSGTDFTLTISRLEPEDFEVYSCQQYGSLPLTFGGGTKVEIKRTVAAPSVFIFPPSDEQLKSGTASVVCLLNNFYPREAKVQWKVDNALQSGNSQESVTEQDSKDSTYSLSSTLTLSKADYEKHKVYACEVTHQGLSSPVTKSFNRGEC |  |  |  |  |  |  |  |  |  |  |  |  |  |  |  |  |  |  |  |  | EC50 of androgen receptor luciferase reporter activation (RLU) by the DHT conjugate REGN14571-M3004 in hCACNG1.AR.Luc LNCaP cells, 24 hours; concentration adjusted for DAR [11]: 7.83 nM; EC50 of androgen receptor luciferase reporter activation (RLU) by the DHT conjugate REGN14571-M3004 in hCACNG1.AR.Luc LNCaP cells, 48 hours; concentration adjusted for DAR [12]: 6.95 nM; EC50 of androgen receptor luciferase reporter activation (RLU) by the DHT conjugate REGN14571-M3004 in hCACNG1.AR.Luc LNCaP cells, 72 hours; concentration adjusted for DAR [13]: 5.44 nM |
| REGN10712 (antibody, human IgG4 S228P, lambda, V domains shown, hIgG4) VH: QVQLVESGGGVVQPGRSLRLSCAASGFTFSTYGMYWVRQTPGKGLEWVTVISFDGNKKYYADSVKGRFTISRDNSKNTLFLQMNSLKTEDTAVYYCAKSSNWNYGSFDIWGQGTMVTVSS VL: QSVLTQPPSVSGAPGQRVTISCTGSSSNIGAGYDVHWYQQLPGTAPRLLISYNSNRPSGVPDRFSGSKSGTSASLAITGLQAEDEADYYCQSYDRSLSGSVFGGGTQLTVLG |  |  |  |  |  |  |  |  |  |  |  |  |  |  | 4.53 | 0.00332 | 733000 | 31 | 3.5 |  | EC50 [7]: 0.053 nM; S/N [7]: 102 fold; EC50 [10]: > 100 nM; S/N [10]: 8.6 fold |

— patent US20240182561A1 (Regeneron, published 2024)
